Data as given in patent US20100129369A1 (Eli Lilly, published 2010).

How the values were obtained:
[1] = target: T1, PlexinA2-ECD-Fc (human, UniProt O75051 35-1237); experiment: ELISA, coated ECD-Fc, antibody 2.143 ng/mL
T1 construct: extracellular domain; Bought reagent
T1 sequence (looked up): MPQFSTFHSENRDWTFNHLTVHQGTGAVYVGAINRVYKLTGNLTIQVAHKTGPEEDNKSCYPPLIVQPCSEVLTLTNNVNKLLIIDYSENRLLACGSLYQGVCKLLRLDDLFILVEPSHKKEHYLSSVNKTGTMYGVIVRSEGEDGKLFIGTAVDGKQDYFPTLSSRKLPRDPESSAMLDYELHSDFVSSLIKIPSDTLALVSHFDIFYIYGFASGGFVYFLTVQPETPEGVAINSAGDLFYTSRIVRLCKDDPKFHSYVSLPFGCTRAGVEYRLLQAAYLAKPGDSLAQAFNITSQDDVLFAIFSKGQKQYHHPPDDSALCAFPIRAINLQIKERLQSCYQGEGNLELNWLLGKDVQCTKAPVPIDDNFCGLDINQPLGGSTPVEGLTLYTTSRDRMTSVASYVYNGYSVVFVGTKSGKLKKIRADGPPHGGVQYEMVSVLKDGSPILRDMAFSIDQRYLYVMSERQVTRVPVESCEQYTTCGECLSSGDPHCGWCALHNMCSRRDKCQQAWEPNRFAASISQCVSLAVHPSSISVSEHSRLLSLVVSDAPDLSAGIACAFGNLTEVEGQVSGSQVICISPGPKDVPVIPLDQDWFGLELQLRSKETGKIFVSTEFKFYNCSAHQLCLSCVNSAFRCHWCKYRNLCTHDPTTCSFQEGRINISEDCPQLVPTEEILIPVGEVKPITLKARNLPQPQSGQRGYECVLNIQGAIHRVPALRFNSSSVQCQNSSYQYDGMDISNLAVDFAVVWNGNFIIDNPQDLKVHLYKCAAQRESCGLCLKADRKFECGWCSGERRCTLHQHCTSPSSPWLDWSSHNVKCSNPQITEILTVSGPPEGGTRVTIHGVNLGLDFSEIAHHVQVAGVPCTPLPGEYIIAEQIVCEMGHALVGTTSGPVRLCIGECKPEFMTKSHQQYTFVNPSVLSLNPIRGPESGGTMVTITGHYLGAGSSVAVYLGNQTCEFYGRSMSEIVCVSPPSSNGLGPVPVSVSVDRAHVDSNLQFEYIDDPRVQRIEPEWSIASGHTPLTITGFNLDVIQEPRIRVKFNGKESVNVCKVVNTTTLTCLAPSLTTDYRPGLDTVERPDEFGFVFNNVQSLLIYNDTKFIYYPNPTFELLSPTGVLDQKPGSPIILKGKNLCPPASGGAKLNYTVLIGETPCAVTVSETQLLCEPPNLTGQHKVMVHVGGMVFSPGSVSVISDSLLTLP
Description: Wells of 96-well EIA/RIA high binding plates (Costar, #2592) are coated with 100 μL of 1 μg/mL human c-Met extracellular domain (ECD)-Fc-Flis fusion (SEQ ID NO:72), RON-ECD-Fc (R&D Systems, #1947-MS), or PlexinA2-ECD-Fc (Abnova, Taipei, Taiwan #H00005362-P01) in coating buffer (BioFX Labs, # COAT-1000-01) overnight at 4° C. […] After the plates are washed, 100 μL/well of substrate solution (BioFx, #TMBW-1000-01) are added and the plates are incubated for 10 min. at room temperature. 100 μL/well of stop solution (BioFx, # LSTP-1000-01) are added to stop the reaction. The colorimetric signals are developed and read at 450 nm using a SpectraMax 190 plate reader (Molecular Devices, Sunnyvale, Calif.). c-Met antibody binding to c-Met, RON and PlexinA2 ECDs is proportional to color signal production.

[2] = target: T2, Cynomolgus Monkey c-Met-Flis-Fc ECD (cynomolgus monkey); experiment: SPR Biacore, antibody captured, ECD-Fc analyte, 1:1 model
T2 construct: also called Cynomolgus Monkey cMet-ECD-Fc-Flis; cynomolgus monkey c-Met ECD
T2 sequence (chain, as listed by the source limits assumed): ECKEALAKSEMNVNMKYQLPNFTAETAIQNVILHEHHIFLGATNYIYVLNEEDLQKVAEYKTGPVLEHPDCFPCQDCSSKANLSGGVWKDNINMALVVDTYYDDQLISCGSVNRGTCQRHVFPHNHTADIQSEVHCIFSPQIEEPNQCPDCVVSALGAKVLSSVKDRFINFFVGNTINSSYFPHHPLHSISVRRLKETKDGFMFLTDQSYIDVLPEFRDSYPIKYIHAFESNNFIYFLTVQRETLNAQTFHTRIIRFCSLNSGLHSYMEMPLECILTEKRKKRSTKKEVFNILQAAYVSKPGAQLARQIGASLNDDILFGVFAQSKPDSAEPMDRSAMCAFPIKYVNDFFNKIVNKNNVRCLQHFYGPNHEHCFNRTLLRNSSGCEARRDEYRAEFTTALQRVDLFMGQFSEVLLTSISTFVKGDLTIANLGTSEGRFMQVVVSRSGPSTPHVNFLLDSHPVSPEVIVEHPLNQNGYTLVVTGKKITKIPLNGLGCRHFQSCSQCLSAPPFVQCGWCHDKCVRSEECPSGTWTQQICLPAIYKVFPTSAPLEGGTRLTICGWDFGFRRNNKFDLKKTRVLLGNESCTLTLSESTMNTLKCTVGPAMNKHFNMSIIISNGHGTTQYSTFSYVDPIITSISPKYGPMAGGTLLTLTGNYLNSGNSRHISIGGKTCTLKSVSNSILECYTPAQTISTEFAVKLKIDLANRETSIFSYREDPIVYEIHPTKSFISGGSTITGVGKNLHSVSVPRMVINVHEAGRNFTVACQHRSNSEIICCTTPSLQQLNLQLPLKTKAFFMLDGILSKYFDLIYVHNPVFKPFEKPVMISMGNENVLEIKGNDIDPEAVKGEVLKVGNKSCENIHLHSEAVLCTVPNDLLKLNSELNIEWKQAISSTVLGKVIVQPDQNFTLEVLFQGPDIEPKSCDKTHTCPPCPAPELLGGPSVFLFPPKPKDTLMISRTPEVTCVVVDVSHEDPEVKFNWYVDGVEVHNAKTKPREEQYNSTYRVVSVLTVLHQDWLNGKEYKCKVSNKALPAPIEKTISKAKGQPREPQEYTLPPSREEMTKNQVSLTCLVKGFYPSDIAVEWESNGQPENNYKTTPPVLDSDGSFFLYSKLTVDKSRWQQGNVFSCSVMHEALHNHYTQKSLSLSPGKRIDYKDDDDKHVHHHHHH
Description: (§1) A Biacore® 2000 instrument is used to measure the binding kinetics of c-Met antibodies to human, cynomolgus monkey, and rat c-Met ECDs. Measurements are performed at 25° C. Samples are dissolved in HBS-EP buffer (150 mM sodium chloride, 3 mM EDTA, 0.005% (w/v) surfactant P-20, and 10 mM N-2-hydroxyethylpiperazine-N′-2-ethanesulfonic acid (HEPES) at pH 7.4; #BR-1001-88).
(§2) Binding is evaluated using multiple cycles. Each cycle is performed at a flow rate of 50 μL/min., and consists of the following steps: injection of about 10 μL of a c-Met antibody at 10 μg/mL aiming at a capture of 40-100 RUs, injection of 250 μL of human, cynomolgus, or rat c-Met-Flis-Fc ECD (starting at 100 nM and using two-fold serial dilutions for each cycle) followed by 20 min. for dissociation, and regeneration using about 30 μL of 10 mM glycine hydrochloride, pH 1.5. Association and dissociation rates for each cycle are evaluated using a “1:1 (Langmuir) binding” model in the BIAevaluation software, version 4.1.

[3] = target: T3, Human c-Met-Flis-Fc ECD (human); experiment: as above
T3 construct: also called human c-Met extracellular domain (ECD)-Fc-Flis fusion; Human cMet-ECD-Fc-Flis
T3 sequence (chain, as listed by the source limits assumed): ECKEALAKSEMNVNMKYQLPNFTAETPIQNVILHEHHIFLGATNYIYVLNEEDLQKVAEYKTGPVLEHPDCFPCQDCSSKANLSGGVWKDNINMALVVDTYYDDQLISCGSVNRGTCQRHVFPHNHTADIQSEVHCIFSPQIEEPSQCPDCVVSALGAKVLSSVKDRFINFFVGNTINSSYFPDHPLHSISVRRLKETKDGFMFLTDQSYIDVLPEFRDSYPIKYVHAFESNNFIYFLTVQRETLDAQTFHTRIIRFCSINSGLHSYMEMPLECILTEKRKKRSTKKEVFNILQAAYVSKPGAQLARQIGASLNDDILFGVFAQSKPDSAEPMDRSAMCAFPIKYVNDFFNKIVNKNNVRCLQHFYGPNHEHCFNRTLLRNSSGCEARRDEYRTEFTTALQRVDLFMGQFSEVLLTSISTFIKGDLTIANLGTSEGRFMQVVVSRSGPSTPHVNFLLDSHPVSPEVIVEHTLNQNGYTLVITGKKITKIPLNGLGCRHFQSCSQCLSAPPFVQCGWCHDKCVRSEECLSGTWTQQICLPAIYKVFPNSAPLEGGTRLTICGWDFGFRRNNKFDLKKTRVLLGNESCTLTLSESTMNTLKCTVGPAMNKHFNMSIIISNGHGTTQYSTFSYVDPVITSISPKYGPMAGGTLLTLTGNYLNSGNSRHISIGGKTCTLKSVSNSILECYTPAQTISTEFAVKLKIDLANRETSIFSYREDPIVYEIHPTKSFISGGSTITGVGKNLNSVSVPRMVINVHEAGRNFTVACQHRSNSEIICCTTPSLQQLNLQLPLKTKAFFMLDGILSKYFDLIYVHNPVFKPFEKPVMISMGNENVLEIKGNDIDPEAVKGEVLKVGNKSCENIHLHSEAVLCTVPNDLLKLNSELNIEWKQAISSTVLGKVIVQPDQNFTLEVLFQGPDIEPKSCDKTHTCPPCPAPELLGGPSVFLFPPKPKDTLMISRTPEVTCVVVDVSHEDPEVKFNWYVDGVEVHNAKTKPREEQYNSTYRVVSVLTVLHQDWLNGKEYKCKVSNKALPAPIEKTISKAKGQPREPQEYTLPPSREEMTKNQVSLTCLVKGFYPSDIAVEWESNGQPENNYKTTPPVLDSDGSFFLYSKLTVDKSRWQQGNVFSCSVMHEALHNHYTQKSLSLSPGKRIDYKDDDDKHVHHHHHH
Description: as §1, §2

B1: C8-6 (antibody, human IgG2, kappa, V domains shown)
VH: QVQLVQSGAEVKKPGASVKVSCKASGYTFTDYYMHWVRQAPGQGLEWMGRVNPNRGGTTYNQKFEGRVTMTTDTSTSTAYMELRSLRSDDTAVYYCARTNWLDYWGQGTTVTVSS
VL: DIQMTQSPSSLSASVGDRVTITCSVSSSVSSIYLHWYQQKPGKAPKLLIYSTSNLASGVPSRFSGSGSGTDFTLTISSLQPEDFATYYCIQYSGYPLTFGGGTKVEIKR
notes: Called IgG4, kappa; also called Mab C8-6
B1 was tested, and the “Average A450 nm” value [1] was 0.106 A450 nm, the Kd [2] was 3.6 nM and the koff [2] was 0.00045 s⁻¹. It also gave a kon [2] of 140000 M⁻¹ s⁻¹, a Kd [3] of 4 nM and a koff [3] of 0.0003 s⁻¹. For the same binder, the kon [3] was 160000 M⁻¹ s⁻¹.
